Laboratory results from publication PMC7900914 (Nature structural & molecular biology, 2017).

Biological target: HLA-B*57:01–TW10 (human |  | HIV-1)
Experiment: SPR

B1: KIR3DL1*001 (similar construct, from insect cells) (receptor)
chain: HMGGQDKPFLSAWPSAVVPRGGHVTLRCHYRHRFNNFMLYKEDRIHIPIFHGRIFQESFNMSPVTTAHAGNYTCRGSHPHSPTGWSAPSNPVVIMVTGNHRKPSLLAHPGPLVKSGERVILQCWSDIMFEHFFLHKEGISKDPSRLVGQIHDGVSKANFSIGPMMLALAGTYRCYGSVTHTPYQLSAPSDPLDIVVTGPYEKPSLSAQPGPKVQAGESVTLSCSSRSSYDMYHLSREGGAHERRLPAVRKVNRTFQADFPLGPATHGGTYRCFGSFRHSPYEWSDPSDPLLVSVTGNPS
Kd: ~60 µM
